This test addresses FLAG-tagged TDP-marginal peptide 20 (TDP-MP20), shortened splicing isoform of TDP-43 (human (cDNA cloned from HEK293T cells)). Nature of the test: co-IP; HEK293T cells co-overexpressing a FLAG-tagged TDP-43 isoform and FL-Venus; IP with anti-DDDDK (FLAG) antibody, 3 h at 4°C, Protein G Mag Sepharose beads, three low-salt washes and one high-salt wash; Venus signal normalised to FLAG signal in the IP (n = 3).

These results are taken from PMC12333503.

Sequence of FLAG-tagged TDP-marginal peptide 20 (TDP-MP20), shortened splicing isoform of TDP-43 (human (cDNA cloned from HEK293T cells)) (Q13148 whole entry, canonical isoform): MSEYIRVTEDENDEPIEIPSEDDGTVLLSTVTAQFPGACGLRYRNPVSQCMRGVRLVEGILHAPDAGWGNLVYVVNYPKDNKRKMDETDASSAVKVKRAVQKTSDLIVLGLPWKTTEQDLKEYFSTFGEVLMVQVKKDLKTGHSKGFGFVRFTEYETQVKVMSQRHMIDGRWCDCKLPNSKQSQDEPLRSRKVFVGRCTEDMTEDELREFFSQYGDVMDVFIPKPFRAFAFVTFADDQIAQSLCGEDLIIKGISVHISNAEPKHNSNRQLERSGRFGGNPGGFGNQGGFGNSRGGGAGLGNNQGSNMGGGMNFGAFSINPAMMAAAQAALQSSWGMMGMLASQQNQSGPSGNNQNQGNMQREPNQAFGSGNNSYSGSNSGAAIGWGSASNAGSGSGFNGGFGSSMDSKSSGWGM

In the case of “TDP-FL fused to Venus (from UniProt Q13148 1-414) (natural protein)”, the fold of co-precipitated FL-Venus (ratio of FL-Venus to FLAG in the IP) relative to FLAG-FL turned out to be 5.7 fold and the fold of co-precipitated FL-Venus (ratio of FL-Venus to FLAG in the IP) relative to FLAG-MP18 is 2.3 fold.
